Data set [1] relates to HT-1080/neo/HPRT editing lines. Put plainly: HPRT gene editing (HAT selection) after shRNA inhibition of selected replication fork proteins. Type of data set: cell-based, human. The following applies: shRNA induced 24 hours with doxycycline (1 μg/ml); AAV-HPe3 MOI 2×10^4. How it is done: (§1) To determine the effect of shRNA specific for selected replication fork proteins on gene editing, experiments were performed using the HT-1080/neo/HPRT editing lines. Each gene indicated in Table 8 below was inhibited with a shRNA (sequences provided in Table 7 below) expressed from a lentivirus vector.
(§2) HPRT and neo gene editing frequencies were measured by G418 or HAT selection and normalized to a cell that was not treated with a shRNA.
(§3) Cells were first transduced with a lentivirus expressing a shRNA specific for the targeted genes. 2×10^4 HT-1080 cells transduced with the specific shRNAs were then plated in 6-well plates on day 1, and the expression of the shRNA was induced for 24 hours with doxycycline (1 μg/ml). On day 2, cells were transduced with AAV-HSN or AAV-HPe3 at a MOI of 2×10^4. On day 4, the cells were treated with trypsin and 0.1% of the cells were replated without selection in 6-well plates to determine the number of colony forming units. The remainder of the cells were replated in 6-well plates for further analysis of gene editing frequency.
(§4) On day 5, neo gene correction experiments were performed by the addition of G418 (700 ug/ml) to the experimental plates. On day 16, plates were washed with PBS and the colonies were stained with Coomassie brilliant blue G. The percentage of neo gene correction was calculated as the number of G418-resistant CFU per total CFU for each original well. On day 6, HPRT gene correction experiments were performed by adding 1× HAT (hypoxanthine-aminopterin-thymidine medium) to the experimental plates. On day 16, plates were washed with PBS and the colonies were stained with Coomassie brilliant blue G. The percentage of HPRT gene correction was calculated as the number of HAT-resistant CFU per total CFU for each original well.

Data set [2] concerns HT-1080/neo/HPRT editing lines. Put plainly: neo gene editing (G418 selection) after shRNA inhibition of selected replication fork proteins. Type of data set: cell-based, human. The following applies: shRNA induced 24 hours with doxycycline (1 μg/ml); AAV-HSN MOI 2×10^4. The method, then: as §1, §2, §3, §4

B1: SH60: shRNA cloned in pTRIPZ (Dharmacon), target gene BLM; SEQ ID NO: 109 (nucleic acid)
chain: GTTGACAGTGAGCGCGGAGTCTGCGTGCGAGGATTATAGTGAAGCCACAGATGTATAATCCTCGCACGCAGACTCCTTGCCTACTGCCTC
For B1, the “HAT (HPRT) gene editing frequency normalized to a cell not treated with a shRNA” value in data set [1] is on record as 1.38. The “G418 (neo) gene editing frequency normalized to a cell not treated with a shRNA” value in data set [2] is 2.08.

B2: SH61: shRNA cloned in pTRIPZ (Dharmacon), target gene BLM; SEQ ID NO: 110 (nucleic acid)
chain: GTTGACAGTGAGCGAAACCTTCCTATGATATTGATATAGTGAAGCCACAGATGTATATCAATATCATAGGAAGGTTGTGCCTACTGCCTC
For the molecule B2, the “HAT (HPRT) gene editing frequency normalized to a cell not treated with a shRNA” value in data set [1] came to 2.82. Further, the “G418 (neo) gene editing frequency normalized to a cell not treated with a shRNA” value in data set [2] was 2.64.

B3: Sh40: shRNA cloned in pTRIPZ (Dharmacon), target gene RMI1/BLAP75; SEQ ID NO: 105 (nucleic acid)
chain: GTTGACAGTGAGCGTGATCTAGTTACAGCTGAAGCATAGTGAAGCCACAGATGTATGCTTCAGCTGTAACTAGATCATGCCTACTGCCTC
With B3, in data set [1], the “HAT (HPRT) gene editing frequency normalized to a cell not treated with a shRNA” value is 1.61. Also, in data set [2], the “G418 (neo) gene editing frequency normalized to a cell not treated with a shRNA” value was determined as 1.37.

B4: SH79: shRNA cloned in pTRIPZ (Dharmacon), target gene POLA1; SEQ ID NO: 113 (nucleic acid)
chain: GTTGACAGTGAGCGCGCAGATCATGTGTGAGCTAAATAGTGAAGCCACAGATGTATTTAGCTCACACATGATCTGCATGCCTACTGCCTC
modifications: listed as DNA, chemistry not fully specified
As for B4, the “HAT (HPRT) gene editing frequency normalized to a cell not treated with a shRNA” value in data set [1] stood at 2.46. Moreover, the “G418 (neo) gene editing frequency normalized to a cell not treated with a shRNA” value in data set [2] stood at 1.24.

B5: SH63: shRNA cloned in pTRIPZ (Dharmacon), target gene BLM; SEQ ID NO: 112 (nucleic acid)
chain: GTTGACAGTGAGCGAAGGTTATCTGTGCTACAATTGTAGTGAAGCCACAGATGTACAATTGTAGCACAGATAACCTGTGCCTACTGCCTC
For B5, the “HAT (HPRT) gene editing frequency normalized to a cell not treated with a shRNA” value in data set [1] came out at 0.92. For the same molecule, the “G418 (neo) gene editing frequency normalized to a cell not treated with a shRNA” value in data set [2] is given as 1.99.

B6: SH62: shRNA cloned in pTRIPZ (Dharmacon), target gene BLM; SEQ ID NO: 111 (nucleic acid)
chain: GTTGACAGTGAGCGCGGTGTCCATTACTTCAATATTTAGTGAAGCCACAGATGTAAATATTGAAGTAATGGACACCATGCCTACTGCCTC
For the molecule B6, the “HAT (HPRT) gene editing frequency normalized to a cell not treated with a shRNA” value in data set [1] turned out to be 2.34. The “G418 (neo) gene editing frequency normalized to a cell not treated with a shRNA” value in data set [2] turned out to be 2.28.

B7: SH9: shRNA cloned in pTRIPZ (Dharmacon), target gene 1B5, anapc5; SEQ ID NO: 102 (nucleic acid)
chain: GTTGACAGTGAGCGCGCGCATTATCTCAGCTACTTATAGTGAAGCCACAGATGTATAAGTAGCTGAGATAATGCGCTTGCCTACTGCCTC
For the molecule B7, the “HAT (HPRT) gene editing frequency normalized to a cell not treated with a shRNA” value in data set [1] is on record as 29.10. For the same molecule, in data set [2], the “G418 (neo) gene editing frequency normalized to a cell not treated with a shRNA” value turned out to be 2.81.

B8: SH7: shRNA cloned in pTRIPZ (Dharmacon), target gene 1B3, POLE4; SEQ ID NO: 101 (nucleic acid)
chain: GTTGACAGTGAGCGCGGAGAGACTTGGATAATGCAATAGTGAAGCCACAGATGTATTGCATTATCCAAGTCTCTCCTTGCCTACTGCCTC
Turning to B8, the “HAT (HPRT) gene editing frequency normalized to a cell not treated with a shRNA” value in data set [1] was 8.24. For the same molecule, the “G418 (neo) gene editing frequency normalized to a cell not treated with a shRNA” value in data set [2] was determined as 1.57.

B9: Sh41: shRNA cloned in pTRIPZ (Dharmacon), target gene Topo III alpha; SEQ ID NO: 106 (nucleic acid)
chain: GTTGACAGTGAGCGTGGACATTTACTGGCTCATGATTAGTGAAGCCACAGATGTAATCATGAGCCAGTAAATGTCCATGCCTACTGCCTC
With B9, the “HAT (HPRT) gene editing frequency normalized to a cell not treated with a shRNA” value in data set [1] worked out at 1.66. Also, the “G418 (neo) gene editing frequency normalized to a cell not treated with a shRNA” value in data set [2] came out at 1.42.

B10: sh15: shRNA cloned in pTRIPZ (Dharmacon), target gene 2b3, pms2; SEQ ID NO: 103 (nucleic acid)
chain: GTTGACAGTGAGCGCCCGTAGTCACTGTATGGAATATAGTGAAGCCACAGATGTATATTCCATACAGTGACTACGGTTGCCTACTGCCTC
In the case of B10, the “HAT (HPRT) gene editing frequency normalized to a cell not treated with a shRNA” value in data set [1] was determined as 17.59. For the same molecule, the “G418 (neo) gene editing frequency normalized to a cell not treated with a shRNA” value in data set [2] turned out to be 3.88.

B11: SH56: shRNA cloned in pTRIPZ (Dharmacon), target gene 12B12, ORC1L; SEQ ID NO: 108 (nucleic acid)
chain: GTTGACAGTGAGCGCGCCACGTTTCAACAGATATATTAGTGAAGCCACAGATGTAATATATCTGTTGAAACGTGGCTTGCCTACTGCCTC
As for B11, in data set [1], the “HAT (HPRT) gene editing frequency normalized to a cell not treated with a shRNA” value was 2.11. The “G418 (neo) gene editing frequency normalized to a cell not treated with a shRNA” value in data set [2] was determined as 2.07.

B12: Sh39: shRNA cloned in pTRIPZ (Dharmacon), target gene BLM; SEQ ID NO: 104 (nucleic acid)
chain: GTTGACAGTGAGCGTAAGCAGCGATGTGATTTGCATTAGTGAAGCCACAGATGTAATGCAAATCACATCGCTGCTTATGCCTACTGCCTC
Regarding B12, the “HAT (HPRT) gene editing frequency normalized to a cell not treated with a shRNA” value in data set [1] was determined as 3.8. In addition, the “G418 (neo) gene editing frequency normalized to a cell not treated with a shRNA” value in data set [2] is listed as 1.67.

B13: Sh42: shRNA cloned in pTRIPZ (Dharmacon), target gene 12A5, MEIS2; SEQ ID NO: 107 (nucleic acid)
chain: GTTGACAGTGAGCGCGGACTTTATCAGAAACTCAAATAGTGAAGCCACAGATGTATTTGAGTTTCTGATAAAGTCCTTGCCTACTGCCTC
As for B13, in data set [2], the “G418 (neo) gene editing frequency normalized to a cell not treated with a shRNA” value turned out to be 1.26.

These data come from patent US20220106596A1, “A METHOD OF GENE EDITING” (University of Washington, priority 2019, published 2022).
